# Data: patent US20160185837A1, “GIP AND GLP-1 RECEPTOR DUAL-AGONISTS FOR THE TREATMENT OF DIABETES” (Medimmune Limited, priority 2013, published 2016)
# Several values for one entry are separate records, joined by “and”; a condition that tells them apart may be missing. Equal values may be shown once.
# T1: human GIP receptor (human) (UniProt P48546)
# T1 sequence (looked up): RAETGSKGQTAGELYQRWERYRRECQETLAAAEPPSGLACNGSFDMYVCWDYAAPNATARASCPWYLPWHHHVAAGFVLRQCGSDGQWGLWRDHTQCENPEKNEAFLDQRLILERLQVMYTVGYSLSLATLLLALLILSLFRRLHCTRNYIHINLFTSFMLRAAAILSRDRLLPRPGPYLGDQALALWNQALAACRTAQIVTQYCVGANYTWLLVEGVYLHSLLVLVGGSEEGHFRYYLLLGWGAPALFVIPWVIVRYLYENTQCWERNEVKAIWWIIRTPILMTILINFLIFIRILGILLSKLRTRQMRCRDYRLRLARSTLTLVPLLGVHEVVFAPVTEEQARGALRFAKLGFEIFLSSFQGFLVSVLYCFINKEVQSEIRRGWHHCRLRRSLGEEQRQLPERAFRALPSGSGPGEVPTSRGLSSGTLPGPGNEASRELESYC
# T2: mouse GIP receptor (mouse) (UniProt Q0P543)
# T2 sequence (looked up): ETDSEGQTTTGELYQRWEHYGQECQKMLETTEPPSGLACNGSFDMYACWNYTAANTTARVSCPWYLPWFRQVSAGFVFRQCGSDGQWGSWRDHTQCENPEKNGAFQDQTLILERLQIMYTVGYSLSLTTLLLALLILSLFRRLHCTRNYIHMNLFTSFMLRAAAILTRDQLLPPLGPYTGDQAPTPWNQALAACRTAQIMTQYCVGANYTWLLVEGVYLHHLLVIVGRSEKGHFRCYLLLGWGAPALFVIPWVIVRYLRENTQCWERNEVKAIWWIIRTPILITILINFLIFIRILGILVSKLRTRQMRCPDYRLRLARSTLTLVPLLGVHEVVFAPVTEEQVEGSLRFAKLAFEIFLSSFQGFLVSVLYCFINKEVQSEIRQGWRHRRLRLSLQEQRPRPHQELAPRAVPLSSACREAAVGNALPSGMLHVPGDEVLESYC
# T3: rat GIP receptor (rat) (UniProt P43219)
# T3 sequence (looked up): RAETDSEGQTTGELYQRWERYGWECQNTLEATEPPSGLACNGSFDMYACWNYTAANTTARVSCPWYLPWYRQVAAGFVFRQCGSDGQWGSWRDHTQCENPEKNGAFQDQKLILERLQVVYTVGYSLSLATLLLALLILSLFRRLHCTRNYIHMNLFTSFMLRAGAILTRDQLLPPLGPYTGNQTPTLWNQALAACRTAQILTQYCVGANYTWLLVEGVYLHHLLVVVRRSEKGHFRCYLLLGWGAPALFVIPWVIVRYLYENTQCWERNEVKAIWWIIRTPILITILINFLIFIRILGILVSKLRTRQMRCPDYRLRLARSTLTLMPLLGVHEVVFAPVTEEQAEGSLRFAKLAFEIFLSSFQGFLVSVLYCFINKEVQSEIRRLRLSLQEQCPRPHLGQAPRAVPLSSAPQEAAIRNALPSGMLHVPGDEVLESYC
# How the values were obtained:
# Assay in all cases: cell-based or functional assay
# [1] = molecular target: T1, human GIP receptor (human)
# [2] = molecular target: mouse GLP-1 receptor (mouse) (UniProt O35659)
# Sequence of mouse GLP-1 receptor (mouse) (O35659 22-463): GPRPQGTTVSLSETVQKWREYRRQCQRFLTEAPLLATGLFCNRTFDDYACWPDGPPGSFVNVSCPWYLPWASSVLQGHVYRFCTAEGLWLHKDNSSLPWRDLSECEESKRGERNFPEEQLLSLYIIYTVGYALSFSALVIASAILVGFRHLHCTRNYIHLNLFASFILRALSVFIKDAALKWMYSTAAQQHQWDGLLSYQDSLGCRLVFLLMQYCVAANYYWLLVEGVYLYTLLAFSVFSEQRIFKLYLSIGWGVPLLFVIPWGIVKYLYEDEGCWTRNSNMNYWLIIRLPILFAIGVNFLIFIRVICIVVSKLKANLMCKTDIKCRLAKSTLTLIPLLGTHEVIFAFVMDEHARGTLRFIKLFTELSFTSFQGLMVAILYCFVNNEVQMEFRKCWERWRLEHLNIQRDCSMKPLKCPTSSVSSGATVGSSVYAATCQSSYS
# rat GLP-1 receptor (rat) = rat GLP-1 receptor (rat) (UniProt P32301)
# Sequence of rat GLP-1 receptor (rat) (P32301 22-463): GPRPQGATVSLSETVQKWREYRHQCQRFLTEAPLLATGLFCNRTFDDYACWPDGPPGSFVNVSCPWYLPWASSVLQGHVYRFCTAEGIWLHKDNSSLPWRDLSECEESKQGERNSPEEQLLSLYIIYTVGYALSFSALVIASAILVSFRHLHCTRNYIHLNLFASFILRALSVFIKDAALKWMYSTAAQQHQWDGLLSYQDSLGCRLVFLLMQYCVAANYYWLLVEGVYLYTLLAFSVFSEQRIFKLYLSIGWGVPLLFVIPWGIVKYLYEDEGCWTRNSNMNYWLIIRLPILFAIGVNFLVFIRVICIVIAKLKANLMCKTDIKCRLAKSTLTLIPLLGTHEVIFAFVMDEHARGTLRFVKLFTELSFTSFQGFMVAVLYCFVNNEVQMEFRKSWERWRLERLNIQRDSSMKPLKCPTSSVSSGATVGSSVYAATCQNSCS
# [3] = molecular target: T2, mouse GIP receptor (mouse)
# [4] = molecular target: human GLP-1 receptor (human) (UniProt P43220)
# Sequence of human GLP-1 receptor (human) (P43220 24-463): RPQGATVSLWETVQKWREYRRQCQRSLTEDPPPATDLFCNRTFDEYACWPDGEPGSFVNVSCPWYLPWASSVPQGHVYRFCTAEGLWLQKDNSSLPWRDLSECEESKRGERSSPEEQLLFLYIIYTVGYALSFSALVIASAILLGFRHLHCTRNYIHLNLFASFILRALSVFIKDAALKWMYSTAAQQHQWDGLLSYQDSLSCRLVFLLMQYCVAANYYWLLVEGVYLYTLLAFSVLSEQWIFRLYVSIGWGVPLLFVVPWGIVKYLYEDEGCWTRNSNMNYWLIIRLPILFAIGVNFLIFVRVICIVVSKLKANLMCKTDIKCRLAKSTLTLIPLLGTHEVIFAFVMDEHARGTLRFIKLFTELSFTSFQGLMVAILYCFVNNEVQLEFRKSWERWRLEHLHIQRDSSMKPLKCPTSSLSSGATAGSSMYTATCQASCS
# rat GIP receptor (rat) = molecular target: T3, rat GIP receptor (rat)
# [5] = molecular target: human glucagon receptor (human) (UniProt P47871)
# Sequence of human glucagon receptor (human) (P47871 26-477): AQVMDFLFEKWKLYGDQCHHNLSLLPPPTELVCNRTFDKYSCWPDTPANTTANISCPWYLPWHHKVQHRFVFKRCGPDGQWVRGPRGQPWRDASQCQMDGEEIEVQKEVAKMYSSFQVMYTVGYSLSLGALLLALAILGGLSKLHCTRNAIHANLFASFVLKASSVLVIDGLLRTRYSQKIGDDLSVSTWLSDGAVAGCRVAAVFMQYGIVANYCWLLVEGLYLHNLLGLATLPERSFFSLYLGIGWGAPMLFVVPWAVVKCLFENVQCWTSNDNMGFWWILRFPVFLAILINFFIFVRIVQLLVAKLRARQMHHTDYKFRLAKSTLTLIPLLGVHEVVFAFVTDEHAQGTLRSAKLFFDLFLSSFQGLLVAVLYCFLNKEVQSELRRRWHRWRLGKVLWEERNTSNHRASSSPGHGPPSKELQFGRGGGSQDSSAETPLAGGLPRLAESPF
cAMP EC50 [1],cAMP EC50 [2],cAMP EC50 (rat GLP-1 receptor (rat)),cAMP EC50 [3],cAMP EC50 [4],cAMP EC50 (rat GIP receptor (rat)),cAMP EC50 [5],"cAMP EC50, hGIPr (C3) line [1]","cAMP EC50, Batch 2 [5]","cAMP EC50, Batch 3 [5]","cAMP EC50, Batch 1 [1]","cAMP EC50, Batch 2 [1]","cAMP EC50, Batch 3 [1]","cAMP EC50, Batch 1 [3]","cAMP EC50, Batch 2 [4]","cAMP EC50, Batch 3 [4]","cAMP EC50, Batch 1 (rat GIP receptor (rat))",Binder
0.025 nM,1 nM,0.061 nM,7.5 nM,0.2 nM,0.27 nM,,,,,,,,,,,,IP226 (Fc fusion) YSEGTFTSDVSKLLERQAIDEFIAWLLKGGAAAGGSGSTASSGSGSATGGGGAATHTCPPCPAPEF
2.5 nM,80 nM,18 nM,,16 nM,72 nM,,,,,,,,,,,,IP223 (Fc fusion) YSEGTFTSDVSSYMEEEAIDEFIAWLLKGGAAAGGSGSTASSGSGSATGGGGAATHTCPPCPAPEF
0.11 nM,22 nM,2.2 nM,35 nM,1.1 nM,5.3 nM,,,,,,,,,,,,IP250 (Fc fusion) YSEGTFTSDVSIAMDRQAIDEFIAWLLKGGAAAGGSGSTASSGSGSATGGGGAATHTCPPCPAPEF
,8.9 nM,0.048 nM,3.7 nM,0.19 nM,> 113 nM,7.6 nM,,,,,,,,,,,IP413 (Fc fusion) YSEGTFTSDYSKLLEEEASRLFIEWLLAGGGGGGSGGGGSGGGGSGGGGSATHTCPPC
0.009 nM,5.5 nM,0.089 nM,0.45 nM,0.66 nM,0.023 nM,1100 nM,,,,,,,,,,,IP330 (Fc fusion) YSEGTFTSDYSKLLERQAIDEFIALLLKGGGGGGGSGGGGSGGGGSGGGGSGGGGSGGGGSA
0.0069 nM,3.6 nM,0.0076 nM,0.52 nM,0.13 nM,0.0089 nM,620 nM,,,,,,,,,,,IP352 (Fc fusion) YSEGTFTSDYSKLLERQAIDEFIAMLLKGEGGGGGSGGGGSGGGGSGGGGSGGGGSGGGGSA
0.0089 nM,0.27 nM,0.023 nM,0.68 nM,0.071 nM,0.02 nM,710 nM,,,,,,,,,,,IP369 (Fc fusion) YSEGTFTSDYSKLLERQAIDEFIAHLLKGGGGGGGSGGGGSGGGGSGGGGSGGGGSGGGGSA
0.0079 nM,0.86 nM,0.059 nM,0.55 nM,0.16 nM,0.014 nM,1200 nM,,,,,,,,,,,IP349 (Fc fusion) YSEGTFTSDYSKLLERQAIDEFIANLLKGGGGGGGSGGGGSGGGGSGGGGSGGGGSGGGGSA
0.013 nM,22 nM,0.31 nM,4 nM,2.6 nM,0.06 nM,> 1950 nM,,,,,,,,,,,IP331 (Fc fusion) YSEGTFTSDYSKLLERQAIDEFIADLLKGGGGGGGSGGGGSGGGGSGGGGSGGGGSGGGGSA
0.013 nM,2.7 nM,0.21 nM,1.3 nM,0.86 nM,0.024 nM,> 1360 nM,,,,,,,,,,,IP350 (Fc fusion) YSEGTFTSDYSKLLERQAIDEFIAGLLKGGGGGGGSGGGGSGGGGSGGGGSGGGGSGGGGSA
0.011 nM,0.89 nM,0.037 nM,1.4 nM,0.29 nM,0.024 nM,> 907 nM,,,,,,,,,,,IP348 (Fc fusion) YSEGTFTSDYSKLLERQAIDEFIASLLKGGGGGGGSGGGGSGGGGSGGGGSGGGGSGGGGSA
0.013 nM,2.5 nM,0.087 nM,0.85 nM,0.75 nM,0.024 nM,> 1490 nM,,,,,,,,,,,IP347 (Fc fusion) YSEGTFTSDYSKLLERQAIDEFIAILLKGGGGGGGSGGGGSGGGGSGGGGSGGGGSGGGGSA
0.011 nM,0.29 nM,0.017 nM,0.16 nM,0.08 nM,0.01 nM,180 nM,0.16 nM,,,,,,,,,,IP346 (Fc fusion) YSEGTFTSDYSKLLERQAIDEFIAFLLKGGGGGGGSGGGGSGGGGSGGGGSGGGGSGGGGSA
,,,,> 317 nM,,> 317 nM,0.8 nM,480 nM,720 nM,0.0026 nM,0.0051 nM and 0.0093 nM,0.0064 nM,0.022 nM,4200 nM,> 6350 nM,0.0076 nM,IP018 (Fc fusion) YSEGTFISDYSIAMDKIHQQDFVNWLLAQKAAAGGSGSTASSGSGSATGGGGAATHTCPPCPAPEF
0.2 nM,> 4860 nM,370 nM,1.3 nM,230 nM,0.22 nM,> 4860 nM,,,,,,,,,,,IP368 (Fc fusion) YSEGTFTSDYRQAIDRQAIDEFIAWLLKGGGGGGGSGGGGSGGGGSGGGGSACPPC
0.0085 nM,0.69 nM,0.058 nM,0.5 nM,0.18 nM,0.02 nM,610 nM,,,,,,,,,,,IP364 (Fc fusion) YSEGTFTSDFSKLLERQAIDEFIAWLLKGGAAAGGSGSTASSGSGSATGGGGAATHTCPPC
0.14 nM,100 nM,14 nM,0.056 nM,6.1 nM,0.016 nM,> 10200 nM,,,,,,,,,,,IP366 (Fc fusion) YSEGTFTSDYRMLKERQAIDEFIAWLLKGGAAAGGSGSTASSGSGSATGGGGAATHTCPPC
0.057 nM,390 nM,8 nM,0.031 nM,4.4 nM,0.0099 nM,> 1300 nM,13 nM,,,,,,,,,,IP367 (Fc fusion) YSEGTFTSDYRILKERQAIDEFIAWLLKGGAAAGGSGSTASSGSGSATGGGGAATHTCPPC
72 nM,> 2070 nM,360 nM,880 nM,960 nM,110 nM,> 2070 nM,,,,,,,,,,,IP343 (Fc fusion) YSEGTFTSDYAAAAERQAIDAFAAWLAAAAGGGGGSGGGGSGGGGSGGGGSA
